In article PMC10524599, “Sensory deficit screen identifies nsf mutation that differentially affects SNARE recycling and quality control” (Cell reports, 2023):

Target: the molecule itself
Assay: SEC; NSF alone, reassembled to the hexamer by a final SEC run with buffer containing 1 mM ATP

B1: I209N NSF (N-ethylmaleimide-sensitive factor, C. griseus ortholog with the I209N mutation) (enzyme)
chain: MAGRSMQAARCPTDELSLSNCAVVSEKDYQSGQHVIVRTSPNHKYIFTLRTHPSVVPGSVAFSLPQRKWAGLSIGQEIEVALYSFDKAKQCIGTMTIEIDFLQKKNIDSNPYDTDKMAAEFIQQFNNQAFSVGQQLVFSFNDKLFGLLVKDIEAMDPSILKGEPASGKRQKIEVGLVVGNSQVAFEKAENSSLNLIGKAKTKENRQSINNPDWNFEKMGIGGLDKEFSDIFRRAFASRVFPPEIVEQMGCKHVKGILLYGPPGCGKTLLARQIGKMLNAREPKVVNGPEILNKYVGESEANIRKLFADAEEEQRRLGANSGLHIIIFDEIDAICKQRGSMAGSTGVHDTVVNQLLSKIDGVEQLNNILVIGMTNRPDLIDEALLRPGRLEVKMEIGLPDEKGRLQILHIHTARMRGHQLLSADVDIKELAVETKNFSGAELEGLVRAAQSTAMNRHIKASTKVEVDMEKAESLQVTRGDFLASLENDIKPAFGTNQEDYASYIMNGIIKWGDPVTRVLDDGELLVQQTKNSDRTPLVSVLLEGPPHSGKTALAAKIAEESNFPFIKICSPDKMIGFSETAKCQAMKKIFDDAYKSQLSCVVVDDIERLLDYVPIGPRFSNLVLQALLVLLKKAPPQGRKLLIIGTTSRKDVLQEMEMLNAFSTTIHVPNIATGEQLLEALELLGNFKDKERTTIAQQVKGKKVWIGIKKLLMLIEMSLQMDPEYRVRKFLALLREEGASPLDFD
notes: legend gives 82.8 kDa monomeric, 496.8 kDa hexameric; also called NSF I209N; I209N NSF protein; source: E. coli BL21(DE3)-RIL, purified (Nickel-NTA, SEC; monomerized without ATP, reassembled by SEC with 1 mM ATP)
stoichiometry N: 6
